Measured values: patent US11339371B2, “Method for inducing pluripotent stem cells to differentiate into ventricular myocytes in vitro” (Institute of Biophysics, Chinese Academy of Sciences, priority 2012, dated 2022)

Assays:
Type in all cases: cell-based, human
BMP2 = assay: quantitative RT-PCR of BMP2 expression at day 6 of differentiation; conditions: added with DKK1, vitamin A-free medium
From the text: The results of quantitative RT-PCR are indicated as relative values compared with those of GADPH. NVa represents vitamin A-free medium.
Additionally, in vitamin A-containing medium, early specific IRX-4 expression in VMs was activated by addition of DKK1 and antagonists of RARα and RAR. This indicated induced differentiation of stem cells into VMs. Because retinoic acid has three RARs receptors (RARα, RARβ, and RARγ), simultaneous inhibition of RARα and RARβ in the presence of vitamin A or retinoic acid has a similar mechanism and effect as that of independent activation of RARγ alone.

IRX-4 = assay: quantitative RT-PCR of ventricle-specific early marker gene IRX-4 at day 14 of differentiation; conditions: for IRX-4 expression level (FIG. 2A): added to the cultures at various concentrations, relative to GADPH
From the text: T-Smad1/5/8 represents total Smad1/5/8 proteins. β-actin served as an internal loading control. The histogram in FIG. 1C presents the experimental results of quantitative RT-PCR analysis of IRX-4 gene expression levels at 14 days of differentiation. […] Connected line indicates the cardiac differentiation efficiency of the stem cells under the corresponding inductive conditions. N represents noggin, B represents BMP4; NVa represents differentiated cells cultured in vitamin A-free medium; RA represents retinoic acid; and numbers represent the concentrations (Unit for BMP4 is ng/mL). Data are expressed as relative values compared with the expression level of glyceraldehyde-3-phosphate dehydrogenase (GADPH).
FIG. 2 presents quantitative RT-PCR analysis of the expression levels of the ventricle-specific early marker gene IRX-4 at day 14 in differentiated cultures with various treatments. […] However, the expression level is reduced by addition of a BMP antagonist, noggin. […] N represents noggin; B represents BMP4, NVa represents differentiated cells treated in vitamin A-free medium; RA represents retinoic acid; and numbers represents the concentrations (Unit is ng/mL). The results of quantitative RT-PCR are indicated as relative values compared with the expression levels of GADPH.
RA represents retinoic acid; RAi represents a retinoic acid inhibitor, BMS189453; NVa represents vitamin A-free medium; The RAR pan-antagonist is BMS493. The results of quantitative RT-PCR are expressed as relative values compared with cTNT expression
2) The role of the BMP pathway in directed differentiation of CM subtypes was analyzed further during cardiac differentiation of stem cells. IRX-4 is a marker gene expressed during early differentiation of VMs. Thus, the IRX-4 expression level was measured to further study the role of the BMP pathway in differentiation of CM subtypes.

[1] = system: MLC-2v-expressing VMs among differentiated CMs; assay: flow cytometry of MLC-2v-expressing cells among cTNT-expressing CMs at day 90; conditions: for proportion of MLC-2v-expressing cells among differentiated CMs: day 90
Procedure: (§1) In some embodiments, from about day 14 of differentiation, growth factor-free medium is used and replaced every 3 days. After about 60 to about 90 days of differentiation, the percentage of VMs in the differentiated CMs was determined with the analysis of APs of CMs (recorded by the patch clamp technique), calcium imagining studies, and/or MLC-2v and cardiac troponin T (cTNT) double immunofluorescence staining for flow cytometric analysis.
(§2) RA represents 1 μM retinoic acid; B represents BMP4; NVa represents vitamin A-free medium; N represents noggin; and numbers represent the concentrations (Unit is ng/mL). The RARγ concentration is 0.1 μM.
(§3) 5) As mentioned above, during early differentiation of CMs, IRX-4 is an important gene with specific expression in differentiated VMs. As CMs mature, VMs begin to specifically express the MLC-2v gene. Thus, the MLC-2v expression level was measured in differentiated cells at day 90 of culture after treatment with various growth factors. […] Moreover, flow cytometry was performed to determine the proportion of MLC-2v-expressing VMs among differentiated CMs (cTNT-expressing cells) at day 90. […] The most classical method to identify the subtypes of CMs is to measure the APs of the CMs. The proportions of cells with atrial-, ventricular-, and nodal-like APs among differentiated CMs were analyzed after treatment with retinoic acid and various doses of BMP4 (FIG. 8).

differentiated CMs [2] = assay: action potential classification of differentiated CMs (patch clamp); conditions: for proportion of CMs with ventricular-like APs: treatment alone during middle stage, differentiated CMs at 90 days
Procedure: as §1, §2, §3

differentiated CMs [3] = assay: calcium imaging of differentiated CMs by confocal laser scanning microscopy at 60-90 days; conditions: 60-90 days of differentiation
From the text: FIG. 5 presents images from confocal laser scanning microscopy and simultaneous recordings of APs of calcium activity in differentiated CMs and the classification of the differentiated CMs according to the specific calcium activity patterns in the various types of CMs. […] FIG. 5B presents the proportions of CMs with Ca^2+ sparks, Ca^2+ transients, and Ca^2+ oscillations in different treatments as classified by calcium signaling patterns of the various subtypes of CMs in A. The vertical axis represents the proportions of CMs with the three different calcium activities; RA represents 1 μM retinoic acid; Letter B represents BMP4; NVa represents vitamin A-free medium; N represents noggin; and numbers represent the concentrations (ng/mL).
4) To verify the role of the BMP pathway in regulating the differentiation of VMs from stem cells, calcium activities of cardiomyocytes were recorded with confocal laser scanning microscopy at 60-90 days of differentiation. Calcium activity in VMs clearly differs from that in AMs and nodel cells. Calcium activity in VMs has a higher imaging frequency, known as Ca^+ sparks. […] Thus, comparing the image pattern of calcium activities in CMs is an effective method to distinguish VMs from AMs and nodel cells.

MLC-2v = assay: western blot of MLC-2v expression in differentiated cells at day 90
Procedure: FIG. 4B presents the results of double immunofluorescence staining of cTNT and MLC-2v in CMs at day 90 of differentiation after retinoic acid, BMP4, and noggin treatments. Letter B in the figures represents BMP4, NVa represents differentiated cells cultured in vitamin A-free medium; RA represents 1 μM retinoic acid; and numbers represent the concentrations (ng/mL).
as §3

| Molecule | BMP2 expression (BMP2) | ventricle-specific IRX-4 expression (IRX-4; added along with DKK1 during middle stage of cardiac differentiation, vitamin A-free medium, relative to cTNT) | proportion of MLC-2v-expressing cardiomyocytes in cardiomyocytes population (cTNT-expressing cells) ([1]; 90 days of differentiation, 0.1 μM, vitamin A-free medium) | proportion of CMs with ventricular-like APs (differentiated CMs [2]) | IRX-4 expression level (FIG. 2A) (IRX-4; day 14) | elevation of the IRX-4 expression level by BMP4 in the presence of retinoic acid (FIG. 2D) (IRX-4; increasing concentrations of noggin, day 14) | IRX-4 expression level (IRX-4; vitamin A-free medium, added day 5 to day 8 of differentiation, 300, 600, 1200 ng/mL) | IRX-4 expression level in retinoic acid-treated culture (IRX-4; added simultaneously with 1 μM retinoic acid, day 5 to day 8, various doses) | proportion of MLC-2v-expressing cells among differentiated CMs ([1]; BMP4 added to cells after retinoic acid treatment) | proportion of MLC-2v-expressing cells among differentiated CMs ([1]; BMP4 treatment alone) | proportion of cells with Ca+ sparks among differentiated CMs (differentiated CMs [3]; retinoic acid plus increasing BMP4) | proportion of cells with Ca+ transients among differentiated CMs (differentiated CMs [3]; retinoic acid treatment, with or without BMP4) | MLC-2v protein expression level (MLC-2v) | proportion of cells with ventricular-like APs (differentiated CMs [2]; differentiated CMs after retinoic acid treatment, increasing doses of BMP4) |
| --- | --- | --- | --- | --- | --- | --- | --- | --- | --- | --- | --- | --- | --- | --- |
| CC1(C)CCC(C)(C)c2cc([C@@H](O)C(=O)Nc3ccc(C(=O)O)cc3F)ccc21 [RARγ, reference compound] | high expression | high expression | up to 80% | 92% | – | – | – | – | – | – | – | – | – | – |
| noggin: BMP2/4 pathway inhibitor (BMP antagonist); purchased from R&D systems (protein, UniProt Q13253 28-232, looked up) Noggin: QHYLHIRPAPSDNLPLVDLIEHPDPIFDPKEKDLNETLLRSLLGGHYDPGFMATSPPEDRPGGGGGAAGGAEDLAELDQLLRQRPSGAMPSEIKGLEFSEGLAQGKKQRLSKKLRRKLQMWLWSQTFCPVLYAWNDLGSRFWPRYVKVGSCFSKRSCSVPEGMVCKPSKSVHLTVLRWRCQRRGGQRCGWIPIQYPIISECKCSC | – | – | – | – | reduced | reduced with additions of increasing concentrations of noggin | effectively reduced | – | – | – | – | – | – | – |
| BMP4: bone morphogenetic protein, growth factor activating Smad1/5/8 signaling; purchased from R&D systems (protein, UniProt P12644 293-408, looked up) Bone morphogenetic protein 4: SPKHHSQRARKKNKNCRRHSLYVDFSDVGWNDWIVAPPGYQAFYCHGDCPFPLADHLNSTNHAIVQTLVNSVNSSIPKACCVPTELSAISMLYLDEYDKVVLKNYQEMVVEGCGCR | – | – | – | more than 90% | elevated with increasing concentrations of BMP4 | – | – | increased correspondingly | effectively increased | highest proportion | increased with increasing concentrations of BMP4 | decreased with increasing concentrations of BMP4 | increased with increasing concentrations of BMP4 | increased significantly |
